Reference: the supplement of paper PMC11246515
± gives the standard deviation of the averaged measurements.

Assay: total protein half-life in vivo (active degradation + dilution); higher = more stable protein
[1] = E. coli NCM3722 delta-clpP delta-lon delta-hslV, growth: N-lim chemostat, doubling time 6 h
[2] = E. coli NCM3722 delta-hslV, growth: N-lim chemostat, doubling time 6 h
[3] = E. coli NCM3722 delta-lon, growth: N-lim chemostat, doubling time 6 h
[4] = E. coli NCM3722 delta-smpB, growth: N-lim chemostat, doubling time 6 h
[5] = wild type E. coli NCM3722, growth: C-lim chemostat, doubling time 3 h
[6] = wild type E. coli NCM3722, growth: C-lim chemostat, doubling time 12 h
[7] = wild type E. coli NCM3722, growth: N-lim chemostat, doubling time 6 h
[8] = wild type E. coli NCM3722, growth: N-lim chemostat, doubling time 12 h
[9] = wild type E. coli NCM3722, growth: P-lim chemostat, doubling time 6 h
[10] = wild type E. coli NCM3722, growth: P-lim chemostat, doubling time 12 h
[11] = wild type E. coli NCM3722, growth: C-lim chemostat, doubling time 6 h
[12] = E. coli NCM3722 delta-clpP, growth: N-lim chemostat, doubling time 6 h

Row | Sequence | total protein half-life in vivo [1] [h] | total protein half-life in vivo [2] [h] | total protein half-life in vivo [3] [h] | total protein half-life in vivo [4] [h] | total protein half-life in vivo [5] [h] | total protein half-life in vivo [6] [h] | total protein half-life in vivo [7] [h] | total protein half-life in vivo [8] [h] | total protein half-life in vivo [9] [h] | total protein half-life in vivo [10] [h] | total protein half-life in vivo [11] [h] | total protein half-life in vivo [12] [h]
1 | MSMVETAPSKIQVRNLNFYYGKFHALKNINLDIAKNQVTAFIGPSGCGKSTLLRTFNKMFELYPEQRAEGEILLDGDNILTNSQDIALLRAKVGMVFQKPTPFPMSIYDNIAFGVRLFEKLSRADMDERVQWALTKAALWNETKDKLHQSGYSLSGGQQQRLCIARGIAIRPEVLLLDEPCSALDPISTGRIEELITELKQDYTVVIVTHNMQQAARCSDHTAFMYLGELIEFSNTDDLFTKPAKKQTEDYITGRYG [P0AAH0] | 5.28 ± 0.14 | 4.78 ± 0.28 | 5.5 ± 0.56 | 4.68 ± 0.39 | 3.05 ± 0.094 | 9.16 ± 0.51 | 4.81 ± 0.24 | 9.09 ± 0.47 | 5.49 ± 0.53 | 12.1 ± 0.36 |  | 
2 | MSNKPFIYQAPFPMGKDNTEYYLLTSDYVSVADFDGETILKVEPEALTLLAQQAFHDASFMLRPAHQKQVAAILHDPEASENDKYVALQFLRNSEIAAKGVLPTCQDTGTAIIVGKKGQRVWTGGGDEETLSKGVYNTYIEDNLRYSQNAALDMYKEVNTGTNLPAQIDLYAVDGDEYKFLCVAKGGGSANKTYLYQETKALLTPGKLKNFLVEKMRTLGTAACPPYHIAFVIGGTSAETNLKTVKLASAHYYDELPTEGNEHGQAFRDVQLEQELLEEAQKLGLGAQFGGKYFAHDIRVIRLPRHGASCPVGMGVSCSADRNIKAKINREGIWIEKLEHNPGQYIPQELRQAGEGEAVKVDLNRPMKEILAQLSQYPVSTRLSLTGTIIVGRDIAHAKLKELIDAGKELPQYIKDHPIYYAGPAKTPAGYPSGSLGPTTAGRMDSYVDLLQSHGGSMIMLAKGNRSQQVTDACHKHGGFYLGSIGGPAAVLAQQSIKHLECVAYPELGMEAIWKIEVEDFPAFILVDDKGNDFFQQIVNKQCANCTK | 5.77 ± 0.79 | 4.08 ± 0.13 | 4.19 ± 0.42 | 3.86 ± 0.25 | 3.08 ± 0.042 | 9.34 ± 1.8 | 4.28 ± 0.48 | 5.98 ± 0.31 | 5.73 | 11.2 ± 0.73 | 5.65 ± 0.69 | 
3 | MSNLLGPRDANGIPVPMTVDESIASMKASLLKKIKRSAYVYRVDCGGCNGCEIEIFATLSPLFDAERFGIKVVPSPRHADILLFTGAVTRAMRSPALRAWQSAPDPKICISYGACGNSGGIFHDLYCVWGGTDKIVPVDVYIPGCPPTPAATLYGFAMALGLLEQKIHARGPGELDEQPAEILHGDMVQPLRVKVDREARRLAGYRYGRQIADDYLTQLGQGEEQVARWLEAENDPRLNEIVSHLNHVVEEARIR | 5.31 |  |  |  |  |  |  |  |  |  |  | 
4 | MSNLSLDFSDNTFQPLAARMRPENLAQYIGQQHLLAAGKPLPRAIEAGHLHSMILWGPPGTGKTTLAEVIARYANADVERISAVTSGVKEIREAIERARQNRNAGRRTILFVDEVHRFNKSQQDAFLPHIEDGTITFIGATTENPSFELNSALLSRARVYLLKSLSTEDIEQVLTQAMEDKTRGYGGQDIVLPDETRRAIAELVNGDARRALNTLEMMADMAEVDDSGKRVLKPELLTEIAGERSARFDNKGDRFYDLISALHKSVRGSAPDAALYWYARIITAGGDPLYVARRCLAIASEDVGNADPRAMQVAIAAWDCFTRVGPAEGERAIAQAIVYLACAPKSNAVYTAFKAALADARERPDYDVPVHLRNAPTKLMKEMGYGQEYRYAHDEANAYAAGEVYFPPEIAQTRYYFPTNRGLEGKIGEKLAWLAEQDQNSPIKRYR [P0AAZ4] | 5.65 ± 0.3 | 4.91 ± 1.5 | 4.562 ± 0.028 | 3.65 ± 0.14 | 3.02 ± 0.14 | 9.37 ± 0.81 | 3.82 ± 0.099 | 5.11 ± 0.23 | 5.07 ± 0.082 | 9.954 ± 0.019 | 5.39 ± 0.29 | 4.56 ± 0.49
5 | MSNVQEWQQLANKELSRREKTVDSLVHQTAEGIAIKPLYTEADLDNLEVTGTLPGLPPYVRGPRATMYTAQPWTIRQYAGFSTAKESNAFYRRNLAAGQKGLSVAFDLATHRGYDSDNPRVAGDVGKAGVAIDTVEDMKVLFDQIPLDKMSVSMTMNGAVLPVLAFYIVAAEEQGVTPDKLTGTIQNDILKEYLCRNTYIYPPKPSMRIIADIIAWCSGNMPRFNTISISGYHMGEAGANCVQQVAFTLADGIEYIKAAISAGLKIDDFAPRLSFFFGIGMDLFMNVAMLRAARYLWSEAVSGFGAQDPKSLALRTHCQTSGWSLTEQDPYNNVIRTTIEALAATLGGTQSLHTNAFDEALGLPTDFSARIARNTQIIIQEESELCRTVDPLAGSYYIESLTDQIVKQARAIIQQIDEAGGMAKAIEAGLPKRMIEEASAREQSLIDQGKRVIVGVNKYKLDHEDETDVLEIDNVMVRNEQIASLERIRATRDDAAVTAALNALTHAAQHNENLLAAAVNAARVRATLGEISDALEVAFDRYLVPSQCVTGVIAQSYHQSEKSASEFDAIVAQTEQFLADNGRRPRILIAKMGQDGHDRGAKVIASAYSDLGFDVDLSPMFSTPEEIARLAVENDVHVVGASSLAAGHKTLIPELVEALKKWGREDICVVAGGVIPPQDYAFLQERGVAAIYGPGTPMLDSVRDVLNLISQHHD |  |  |  |  | 3.42 |  |  |  |  |  |  | 
6 | MSPIEKSSKLENVCYDIRGPVLKEAKRLEEEGNKVLKLNIGNPAPFGFDAPDEILVDVIRNLPTAQGYCDSKGLYSARKAIMQHYQARGMRDVTVEDIYIGNGVSELIVQAMQALLNSGDEMLVPAPDYPLWTAAVSLSSGKAVHYLCDESSDWFPDLDDIRAKITPRTRGIVIINPNNPTGAVYSKELLMEIVEIARQHNLIIFADEIYDKILYDDAEHHSIAPLAPDLLTITFNGLSKTYRVAGFRQGWMVLNGPKKHAKGYIEGLEMLASMRLCANVPAQHAIQTALGGYQSISEFITPGGRLYEQRNRAWELINDIPGVSCVKPRGALYMFPKIDAKRFNIHDDQKMVLDFLLQEKVLLVQGTAFNWPWPDHFRIVTLPRVDDIELSLSKFARFLSGYHQL [P0A959] | 4.25 ± 0.35 | 3.89 ± 0.23 | 4.86 ± 1.1 | 3.88 ± 0.19 | 3.14 ± 0.28 | 9.16 ± 0.84 | 3.76 ± 0.29 | 7.13 ± 0.82 | 6.06 ± 0.87 | 11.78 ± 0.1 | 5.63 ± 0.23 | 3.41 ± 0.16
